# Experiment: label from the status in PepcDB records
row,Sequence,protein production
1,MTQKVALIGFGGVAQGFIQILRERGEELPEHIQVVSITDWRRGAVHDPNGLDLDFIAKIIETDGTFEHYPERSGVIKGWNSFETIQQTNADTIVEVTFTDVLTGQPAIDHCKEALRLGKHVVTTNKGPIAVAYQELKELADANGVQLLYEGTVMSGTPALRLPEHTLIGNNIQEVKGILNGTTNYILTEMERGKTFEQALQDAQTLGYAEADPTSDVEGYDVLYKVVILANVMMGIPLKPSDVERVGISHLTPRDIKDAHSAGERWKLIGRVKKEGERTMATVRPERLPLTDPLANINGAINAITYECDISGPITLIGAGAGVKETGFALLIDLLHVNRLGE,failed
2,MGVLWNSIQSVLVVVLIMILGFVLRRAGWFDDKFAGTISKFIKNIALPASIFVSVLSRLTRGQLGSFAGYLAYAFLAVIIGYLIAFALVKVMRVRPGRKGIFINAIVNANTIFIGLPLNIALFGDKSMTYFLVYYIVNTVSTWAFGVFLISNDDPTKSKEKTHNKIDWKKVIPMPLVGFLVALIFLLLNIPIMKVSFVSSTLTYVGNLVTPLSLIYIGIVLADAGLKSIRFDRDTVVALVGRFILSPIVMILVLMVAGNLGASFPTLASQTLIVQSATPMLAVLPILANEAHGDVEYATNIVTTSTVLFIVVVPVLMTLIQYI,failed
3,MAYDIERYLDIRGAGDPTYGPTGELAFTLGTTGTAQVWALGAPGAWPTQLTFHDERVQWASFSPTREELAYGMDTGGDEFTQLHRVSGDGSEDVQLTAFPDAKHDWGGWSHDGDRIAYTANRRDASRFDVYVQGRDEAGANADCVRVGDTFDLPSVVGWSPSDDRLLVVDTHSNFDQDVAVLDVDTGEITRATAGLDADTRFSWVAWAPDGGGVYVTTDHDADTRYLGLLDPETGAISRVADGGDWPIEAVVTAHDAGRLAYVRNRDGYSELTIADAAGTTLTEQPTPELPDGVIRGLSWGPDGDTLAVVVSAATENPNVFVVDVATGAATQWTNAATAGIPKSTFREPELVRYETFDGREIPALFTRPDGDGPHPVIVDFHGGPEGQRRPSFLSLRQYFVDNGYAVFEPNVRGSSGYGATYMNLDNVRNRMDAVADGKAGVEWLTARTDIDADRVVAYGGSYGGFMVLASLTEYPELWAAGVDIVGIANFVTFLENTGDWRREHRESEYGSLDADREFLESISPTNNADRIRAPLLVLHGANDPRVPVGEAERIVEQASAHVPVEKHVFDDEGHGFSKRANKQAAYRAVVDFLDDHA,failed
4,MSFGDTLGLGFMTFAFFLGAGNLIFPPFAGMLAGENMLLAMLGFLITAVGLPLVGLIAVAKAQGKVMAMLPVFAATALAIAIYIIIGPAFAAPRTGLVAYEIGAKPFIDNTTATIMLGSLSLNLSQLIYTLGFFIVTMLLALFPGKLLDSVGKVLTPILLLLLVGLALSVLFLPASEVGVAVGDYKNHPLTKGILEGYNTMDTLASLMFGMLIIDLLRKKGIEQPSAQTKYLIRAAFIAAAGLAFVYVSLFFLGATAGDIAAGAKNGGEILTNYVTREFGSLGTVLLSAVVTLACLTTAVGLVSACSEFFNELMPKLSYRFLVVALSAICALIANVGLSQLINISIPVLMAVYPVAIALVAVTFLTEYFPRPQFAHRAALSVALLFGIFDGMKVAAKSLTGEDGRGITEFAQSFIDFVNGMSPTLSILPLYEEGMAWLLPTLVVIVLCLIIRGSGAKTVSAA,failed
5,METRASYILVGVFTLLAVTGALAFVLWTAGRGEGKAMAAYDVHFSGNVMGLSVASDVFFNGVKVGAVKQITLNPDDPAKVKVRIEIDATTPVREDSVASLEGRGLTGVSVVQITGGSPHAPLLVGTAGEVPVIASRASRLEELFAGMPQLVGSGNELVNRLADVLNAENRAALASTFHALDTVTARMAARADSLDRIITNMDTTTRRLANASAGLETLAGDMRDLTRGDMRDSIVAVGNTARRLDALLAAAEPGVTGFSTEGLEDMRRLLIESRHLVTTLNRMAQRMESDPRRFMFGNQLPEYEER,failed
6,MSSRPQREKSMTALTQHAPVLEIYQDIANLTSRMLAAANASNWDLVLNHGQEYVCLVERLRELEPGEPLDEAARGMKFDLLVRILENDAAVRDLALPQLARLSDLLGRMKRQQSLLATYSGKANGT,not failed
7,MMQVQYIIWLSCCFKRMNKDREFTESKTIKQNTKMKKRILGAALLVAIAVAAGWNYNQSRNEVPLSDLALANAEALAQGETDWGNCTYYGCIVDFSSTCNVYSSIWGNLIKVCPNMRG,failed
8,METELVTYKEKNVQMSMLEVIGMIGIIFGVMYGIGYLNFLYEFSLYPWYVNHLISPFTFCMIIVMYAPARNYCVQLVKSIQFNHFKHYVTIVMTMIVLLIYLAVLNLVLPHGLGVEGSNIVIEPTKNEIILYVVVLTIFAPIWEELVFRGMFFMKLSQRFSTLSSAVISAFIFTLGHPLTVGSILYIFGIGICLAYTYKKTNNLLVPIGIHVLNNSFNLLVNFQL,failed
9,MAGKEFKQRIRQALNNASLRGALGRFADSYVVSREEVYAGRDFESLRQRIAAIKADAAGRYEELADRFSRAVEARGGKVFRAKDAAAAREYIYQVAKEHGVTEIVKSKSFASEEIHLNEFLQERGINPYETDLAEWILQLMPGERPSHMVMPAIHLPKEEVARVFSRYLGEPVEPDIKNMVRIARRELRKKFLTAGMGISGANIAVAETGTIVLCTNEGNARLTTTVPPVHVAIVGYEKLVPSIKDIVPILEALPRSGTAQPITSYVTMITGPVPAWRGEGEGIKELHVVLLDNGRTRMAADPVFKEALQCIRCASCTNVCPVFQLVSGQVYGYIYNGGIGSVLTAFFNSLEDAVDPQSLCIGCRRCAEVCPAKINIPDLVLKLRERVVTKQGLSSGYRIALHGIVAKPKLMHTLLRAASRLQGPVTHGQPLIRHLPLFFSNLTSGRSLPAIAKEPLRDRVKRLEARTGRPRLKAAFYSGCVIDFAYPEIGEAVYKVLGREGVQVTFPQGQACCGAPAVYAGDRETAVKLAKQNITALEEARADVVVTACPTCAVALKKDFPELLAGEPAWEERARALAKKVKDFTELVHELTGGQGKKVKQAKKSGSGAVKVTYHDSCHFKRHLGLDQVARQVLKEQPGVELVEMQESDRCCGFGGSYSIKYPEISAPILERKLKNITESGAQVVAADCPGCVLQLRGGLDQKGSSIKVKHTAEVLAALENLQGGGNSK,failed
10,MDLSSKPQQQLLNSLPIAGELTVTGEMGVCYKECLKNHAANLGGHALDGCGEFMPSPTATSTDPSSLRCAACGCHRNFHRRDPSENLNFLTAPPISSPSGTESPPSRHVSSPVPCSYYTSAPPHHVILSLSSGFPGPSDQDPTVVRSENSSRGAMRKRTRTKFTPEQKIKMRAFAEKAGWKINGCDEKSVREFCNEVGIERGVLKVWMHNNKYSLLNGKIREIEHGLCLNTHSNDGDGSSSS,not failed
11,MKQPLRVLISCRPEENSGGKRSEQNDAVFEFAAWLARTSDINVRGITTFIRPWPSSSISKLGGKYHKWYKNLDSYYRSRTIKGLKEAGVEKSQWDDDVSVFVDGPSESTLLTHAAEEFEADLILLGSDATAPKGRFLASSTADALLHSSPVPLGLVPRGVKLSKKGVTRVNYAFTNESDDFEQGLRSSAELATNWNVPLRILAFSPTGITSAPTSRSLDISTELSSEWRELTLAMLDRARDGVLTDHPNLSVSSETGSGWGWSGAIDALRWKKGDLLCMGSHRTDTLSRVFVGSETMEIIRNSPVPTIIYPGL,failed
12,MSETDTAWIETALTSARPQAVGALLRYFRDLDTAEEAFQNACLRALKTWPQNGPPRDPAAWLIMVGRNVAIDEVRRARKQQPLPEDDQAISDLDDAEGALAERLDGSHYRDDILRLMFICCHPQLPATQQIALALRIVSGLTVKQIARAFLVSEAAMEQRITRAKAKVAEAGTPFETPGPIERSERLAGVAAMIYLIFNEGYSASGDTAEIRKPLCEEAIRLARLLLRLFQSEPEIMGLAALLLLQHARSAARFADDGSLILLEDQDRSLWNGSMIAEGLALIDKAMRHRRSGPYQIQAAIAALHARAATPEETDWAQIDLLYGALELAQPSPVVTLNRAVAVSKVRGPQAALDLIEPLAPKLGNYFHFHGVRGAFLMQLGRNDEARIAFDRAIALANTSAEAAHIRMHIDRLIRDSQPKSSNGSARQGAKAK,failed
13,MSLKSIEVVAAVIRLGEKYLCVQRGQTKFSYTSFRYEFPGGKVEEGESLQEALQREIMEEMDYVIEVGEKLLTVHHTYPDFEITMHAFLCHPVGQRYVLKEHIAAQWLSTREMAILDWAEADKPIVRKISEQEGHHHHHH,not failed
14,IQLIVNGQSQLVPSPDSGTDSGTTNDARLNIRQLLEHMGLQGKRIAVERNGEIVPRSQFDQPMLASGDKLEIVVAVGGG,failed

# From a protein production outcome set (Wang et al. 2014)
